Among the data in patent publication US12351648B2, “Methods of inhibiting MASP-2 for the treatment and/or prevention of coronavirus-induced acute respiratory distress syndrome” (priority 2020, dated 2025) are IC50 values, retold here.

The test deals with human MASP-2 (Homo sapiens (Human), UniProt O00187). As to the kind of experiment: C3 assay: inhibition of lectin pathway C3 convertase formation in human serum (scFv clones). Type of test: biochemical. The conditions noted are these: read-out: 1% human serum C3 assay (IC50 nM), scFv format.
human MASP-2, sequence (O00187 whole entry, looked up): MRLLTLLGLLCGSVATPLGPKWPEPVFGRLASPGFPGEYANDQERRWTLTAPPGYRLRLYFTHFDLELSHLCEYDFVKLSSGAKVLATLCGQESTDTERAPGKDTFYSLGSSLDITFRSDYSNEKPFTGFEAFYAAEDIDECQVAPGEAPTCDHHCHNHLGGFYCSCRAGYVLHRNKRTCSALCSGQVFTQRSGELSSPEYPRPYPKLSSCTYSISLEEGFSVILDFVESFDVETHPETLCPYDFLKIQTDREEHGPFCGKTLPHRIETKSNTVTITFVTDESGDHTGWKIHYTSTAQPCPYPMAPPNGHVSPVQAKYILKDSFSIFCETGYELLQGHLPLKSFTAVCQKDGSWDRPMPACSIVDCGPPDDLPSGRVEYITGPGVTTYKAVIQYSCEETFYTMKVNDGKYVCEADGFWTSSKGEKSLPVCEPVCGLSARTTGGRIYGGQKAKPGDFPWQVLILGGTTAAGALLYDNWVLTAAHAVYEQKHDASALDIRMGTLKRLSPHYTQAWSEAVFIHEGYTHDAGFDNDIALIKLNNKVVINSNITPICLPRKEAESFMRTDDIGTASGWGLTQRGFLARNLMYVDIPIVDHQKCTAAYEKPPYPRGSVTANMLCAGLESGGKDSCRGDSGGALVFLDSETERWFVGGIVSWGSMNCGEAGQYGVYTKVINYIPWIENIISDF

Source text: A functional assay that measures inhibition of lectin pathway C3 convertase formation was used to evaluate the “blocking activity” of the MASP-2 scFv candidate clones. MASP-2 serine protease activity is required in order to generate the two protein components (C4b, C2a) that comprise the lectin pathway C3 convertase. Therefore, a MASP-2 scFv that inhibits MASP-2 functional activity (i.e., a blocking MASP-2 scFv), will inhibit de novo formation of lectin pathway C3 convertase. […]
The scFv clones were each tested in triplicate at the concentration of 2 μg/mL. […] C3c formation was monitored in the presence and absence of the scFv/IgG clones. […]
Normal human serum was diluted to 0.5% in CaMgGVB buffer, and scFv clones or the OMS100 Fab2 positive control were added in triplicates at 0.01 μg/mL; 1 μg/mL (only OMS100 control) and 10 μg/mL to this buffer and preincubated 45 minutes on ice before addition to the blocked ELISA plate. […] C3b deposition was detected with a Rabbit α-Mouse C3c antibody followed by Goat α-Rabbit H1RP. […] The background was determined by carrying out the same assay except that the wells were mannan-free. […]

B1: 17D20mc: mother scFv clone, fully human MASP-2 antibody from phage display (TABLE 8, "all in scFv format") (protein)
scFv: QVTLKESGPVLVKPTETLTLTCTVSGFSLSRGKMGVSWIRQPPGKALEWLAHIFSSDEKSYRTSLKSRLTISKDTSKNQVVLTMTNMDPVDTATYYCARIRAGGIDYWGQGTLVTVSSKLSGSASAPKLEEGEFSEARVQPVLTQPPSVSVSPGQTASITCSGDKLGDKFAYWYQQKPGHSPVLVIYQDNKRPSGIPGRFSGSNSGNTATLTISGTQAMDEADYYCQAWDSSTAVFGTGTKVTVLAAAGSEQKLISEEDLNSHHHHHH
With B1, the IC50 was 38 nM.

B2: 17N16mc: mother scFv clone, fully human MASP-2 antibody from phage display (TABLE 8, "all in scFv format") (protein)
scFv: QVQLQQSGPGLVKPSQTLSLTCAISGDSVSSTSAAWNWIRQSPSRGLEWLGRTYYRSKWYNDYAVSVKSRITINPDTSKNQFSLQLNSVTPEDTAVYYCARDPFGVPFDIWGQGTMVTVSSKLSGSASAPKLEEGEFSEARVSYVLTQPPSVSVAPGQTARITCGGNNIGSKNVHWYQQKPGQAPVLVVYDDSDRPSGIPERFSGSNSGNTATLTVSRVEAGDEADYYCQVWDTTTDHVVFGGGTKLTVLAAAGSEQKLISEEDLNSHHHHHH
As to B2, the IC50 was 68 nM.

As a reminder, the IC50 is the concentration that gives 50% inhibition.
